Data on eleven molecules can be found in publication PMC5752674, “Redox regulation of PEP activity during seedling establishment in Arabidopsis thaliana” (Nature Communications, 2018).

For data set [1], the target named is PRIN2 Cys115Ser (C2S) in transgenic prin2-2 + C2S lines (Arabidopsis thaliana) (UniProt Q9XIK0). The data set can be described thus: SDS-PAGE with immunoblot; protein of transgenic prin2-2 lines with PRIN2 variants (Supplementary Figs. 4c and 5); conditions not shown. In general terms: A western blot detects proteins with antibodies after separation by electrophoresis.

The target in data set [2] is recombinant Arabidopsis PRIN2 WT (PLASTID REDOX …2), without the transit peptide (Arabidopsis thaliana) (UniProt Q9XIK0). The data set can be described thus: non-reducing SDS-PAGE; purified recombinant protein (1 ug), untreated (air), with 5 mM DTT or other DTT concentrations, or with 2 mM H2O2; 15% polyacrylamide, nonreducing conditions, Coomassie Brilliant Blue; disulfide-linked dimer to monomers.

The target in data set [3] is PRIN2 in isolated chloroplasts of a 35S:PRIN2 line (Arabidopsis thaliana) (UniProt Q9XIK0). Description: non-reducing SDS-PAGE with immunoblot; protein extracts of isolated chloroplasts (35S:PRIN2 line; WT plants kept in light or 48 h in the dark) or of Arabidopsis cell culture (dark, light, light with 10 mM H2O2, DCMU, MV, high light), nonreducing conditions, anti-PRIN2 polyclonal antibody.

Data set [4] addresses endogenous PRIN2 of Arabidopsis (Arabidopsis thaliana (endogenous in Col-0 plants and cell culture)) (UniProt Q9XIK0). The description is as above.
For data set [5], the target named is T1, PRIN2 (PLASTID REDOX INSENSITIVE2), recombinant without transit peptide (Arabidopsis thaliana) (UniProt Q9XIK0).
T1 sequence: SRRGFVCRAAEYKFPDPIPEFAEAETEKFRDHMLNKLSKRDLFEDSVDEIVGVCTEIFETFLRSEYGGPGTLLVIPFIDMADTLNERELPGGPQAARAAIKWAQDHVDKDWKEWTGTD
The data set can be described thus: competition EMSA. To be noted: EMSA with 3 ug PRIN2 per reaction; buffer, salt, pH and temperature not given in the material. (In EMSA bound probe runs differently from free probe, usually more slowly.)

The target in data set [6] is T2, PRIN2 (PLASTID REDOX …2), recombinant without transit peptide (Arabidopsis thaliana, UniProt Q9XIK0 62-179).
T2 sequence: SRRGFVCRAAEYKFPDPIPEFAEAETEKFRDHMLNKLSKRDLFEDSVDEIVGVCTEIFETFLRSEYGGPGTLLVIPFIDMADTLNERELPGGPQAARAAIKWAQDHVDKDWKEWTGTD
Description: competition EMSA; 50-fold excess over labeled ycf1; EMSA with 3 ug PRIN2 per reaction; buffer, salt, pH and temperature not given in the material. The note with it: protein: recombinant, tags: His (pET-His1a), label: none, blunt.

Data set [7] concerns the molecule itself. The data set can be described thus: SDS-PAGE with immunoblot; input protein extracts of protoplasts transformed with PRIN2-cMyc or TRXz-HA, probed with anti-cMyc or anti-HA; whether reducing or not is not stated.
Data set [8] concerns the target T2, PRIN2 (PLASTID REDOX …2), recombinant …. The data set can be described thus: EMSA; 3 ug protein; competed by 50-fold unlabeled ycf1; EMSA with 3 ug PRIN2 per reaction; buffer, salt, pH and temperature not given in the material. To be noted: tags: His (pET-His1a), label: biotin 3' end (Biotin-14-dCTP), blunt.

With “PRIN2 Cys115Ser (C2S) in transgenic prin2-2 + C2S lines (from UniProt Q9XIK0 70-179) (natural protein)”, the stoichiometry N in data set [1] came out at 2.
On to “recombinant Arabidopsis PRIN2 WT (PLASTID REDOX …2), without the transit peptide (from UniProt Q9XIK0 70-179) (natural protein)”, for which, in data set [2], the stoichiometry N worked out at 2.
Take “PRIN2 in isolated chloroplasts of a 35S:PRIN2 line (from UniProt Q9XIK0 70-179) (natural protein)”: the stoichiometry N in data set [3] was 2.
“endogenous PRIN2 of Arabidopsis (from UniProt Q9XIK0 70-179) (natural protein)” showed a stoichiometry N in data set [4] of 2.
As to “GAAACAGTATAACATGACTTATATAGCCATGTCAACCAATGTAAAATGGATAAGATCCTTTTAGTTTAGATTCATAAAAAATTTTTTGTAATCGATGAAATAAATTAGAAGCGAATCCACATACATAGAAATAGAATTGCTCTAGGAATATTTTTTCCAAATCATATGAATACGATTGAATACGATCCGTAGTGGGT (double strand) [psbA promoter competitor (psbA_197)]”, in data set [5], the binding result is recorded as “binds”.

B1: clpP promoter competitor (dsDNA)
DNA 1: CGAAACCCCAATTTTACGTTTCCACATCAAAGTGAAATAGAGAA
DNA 2: TTCTCTATTTCACTTTGATGTGGAAACGTAAAATTGGGGTTTCG
With B1, in data set [6], the binding result is “binds”.

B2: TRXz-HA (full-length Thioredoxin z fused to an HA tag) (natural protein, Arabidopsis thaliana, UniProt Q9M7X9 82-183, looked up)
chain: AQELQELVKGDRKVPLIVDFYATWCGPCILMAQELEMLAVEYESNAIIVKVDTDDEYEFARDMQVRGLPTLFFISPDPSKDAIRTEGLIPLQMMHDIIDNEM
notes: also called pRT104-TRXz-HA; source: Arabidopsis Ler suspension culture protoplasts, transiently transformed, in protein extract
With B2, the “stoichiometry N” value in data set [7] stood at 2.

B3: PRIN2-cMyc (full-length PRIN2 fused to a cMyc tag) (natural protein, Arabidopsis thaliana, UniProt Q9XIK0 68-179, looked up)
chain: CRAAEYKFPDPIPEFAEAETEKFRDHMLNKLSKRDLFEDSVDEIVGVCTEIFETFLRSEYGGPGTLLVIPFIDMADTLNERELPGGPQAARAAIKWAQDHVDKDWKEWTGTD
notes: also called pRT104-PRIN2-cMyc; source: Arabidopsis Ler suspension culture protoplasts, transiently transformed, in protein extract
Take B3: in data set [7], the “stoichiometry N” value worked out at 2.

B4: rpoB promoter competitor (dsDNA)
DNA 1: TATGGTATGCAATCGAATTGGAATATGTAATATCATAGGTGAAAATGAAATTAC
DNA 2: GTAATTTCATTTTCACCTATGATATTACATATTCCAATTCGATTGCATACCATA
Consider B4, for which the binding result in data set [6] is “binds”.

B5: ycf1 promoter probe (dsDNA)
DNA 1: CCATTCATTTAATATCCCTTTGGTGTCATTGACATAAGAGAT
DNA 2: ATCTCTTATGTCAATGACACCAAAGGGATATTAAATGAATGG
Turning to B5, in data set [8], the binding result is on record as “binds”.

B6: psaA U region competitor (dsDNA)
DNA 1: TTTTTTAATTATAAAAAAGGGTCCGTTGAGCACCCTATCCAT
DNA 2: ATCCATAGGGTGCTCAACGGACCCTTTTTTATAATTAAAAAA
Take B6: the binding result in data set [6] (as printed, strands mismatch near the 3' end of strand 1 (possible misprint)) is on record as “binds”.

As a reminder, the stoichiometry N is a count of units in the complex or per binding partner.
